Drawing on patent US20220119492A1 (MEDIKINE, published 2022), this text covers IC50 for six molecules.

Bounds are passed on as bounds.

This assay addresses T1, human IL-2Rβ (CD122 protein, Fc Tag) (27-239) (human, UniProt P14784 27-239).
T1 construct: range 27-239; Bought protein; also called hu-IL-2Rβ subunit; IL-2Rβ subunit; not shown: Fc tag of the bought protein
T1 sequence (looked up): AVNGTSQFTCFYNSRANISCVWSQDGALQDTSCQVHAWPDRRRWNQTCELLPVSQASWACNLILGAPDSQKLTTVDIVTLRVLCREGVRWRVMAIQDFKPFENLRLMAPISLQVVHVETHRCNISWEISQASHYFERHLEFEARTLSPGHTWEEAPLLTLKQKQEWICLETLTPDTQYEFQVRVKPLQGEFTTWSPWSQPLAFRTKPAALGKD
The assay can be described thus: competitive binding ELISA (Example 28). How it is done: In this example, IL-2R ligands were diluted to 2-times final assay concentration in PBT (1×PBS pH 7.2, 0.5% Bovine Serum Albumin, 0.05% Tween®20) and serially diluted. Fifty (50) μL was added to the appropriate wells. The plates were then incubated at 4° C. for 1 hr.
Without washing, fifty (50) μL of representative phage were added to the assay wells (phage tracer). The plates were then incubated at 4° C. for 45 min.
Background: An ELISA detects its analyte on a solid surface through an enzyme-linked reagent.

As for RWGDVGDLLMPL (also called family 2C) [IL-2Rβ ligand SEQ ID NO: 1042], the IC50 is < 10 µM.

B1: IL-2Rβ ligand SEQ ID NO: 170 (peptide)
peptide: QICDVGQWWPDCQV
notes: Used as phage clone; also called family 2A
In the case of B1, the IC50 is < 10 µM.

B2: IL-2Rβ ligand SEQ ID NO: 1044 (peptide)
peptide: RSCYYKRPRLWCSE
notes: Used as synthetic peptide and as phage clone; also called family 4
On to B2, for which the concentration for half-maximal inhibition (IC50) was < 10 µM.

B3: IL-2Rβ ligand SEQ ID NO: 1034 (peptide)
peptide: CGMAIGDLCMWT
notes: Used as phage clone; also called family 2C
In the case of B3, the half-maximal inhibitory concentration (IC50) was < 10 µM.

As for NMCLVGDYWPSCQI (also called family 2A) [IL-2Rβ ligand SEQ ID NO: 169], the IC50 was < 10 µM.

B4: IL-2Rβ ligand SEQ ID NO: 58 (peptide)
peptide: YDCRIAQVGELCDL
notes: Used as synthetic peptide and as phage clone; also called family 1
Regarding B4, the IC50 is < 10 µM.

One may read the IC50 as the point on the concentration scale where inhibition reaches its midpoint. A low value points to inhibition by little substance.
